Numbering of substitutions follows the chain as printed. Names may count otherwise. “And” between values parts separate entries of the source, which are not always exact repeats. Identical values can stand only once. One block for each binder: values may come before it.
How the values were obtained:
[1] = biological target: T1, hROR2-Fc (human ROR2 Fc fusion protein) (human, UniProt Q01974 34-403, limits assumed); experiment: SPR, Biacore X100; hROR2-Fc captured, Fab injected; reference Fab 401
T1 construct: Given both as hROR2-Fc and as Fc-hROR2, so the order of the two parts is not certain; also called Fc-hROR2; not shown: human Fc part (captured by a mouse anti-human IgG CH2 / Fcγ mAb)

[2] = biological target: T1, hROR2-Fc (human ROR2 Fc fusion protein); experiment: SPR; reference the existing anti-ROR2 antibody (XBR2-401)
[3] = biological target: T1, hROR2-Fc (human ROR2 Fc fusion protein); experiment: SPR, Biacore X100; hROR2-Fc captured by anti-human Fc mAb on a CM5 chip, Fab injected
[4] = biological target: T2, human ROR1 on cells (MDA-MB-231, ROR2-, ROR1+; also 786-O, ROR2+, ROR1+) (human, UniProt Q01973 30-937); experiment: flow cytometry on MDA-MB-231 cells (ROR2-, ROR1+); Fab followed by PE-conjugated goat anti-human F(ab')2 pAbs
T2 construct: whole, on cells

[5] = biological target: T1, hROR2-Fc (human ROR2 Fc fusion protein); experiment: SPR (Biacore X100), Fc-hROR2 captured on CM5 chip via mouse anti-human Fcγ mAb, Fab as analyte, 1:1 binding model
[6] = biological target: T2, human ROR1 on cells (MDA-MB-231, ROR2-, …); experiment: Retrogenix cell microarray post-screen, ROR1 expressed on HEK 293 cells
[7] = biological target: human CD3 on Jurkat-T Lucia cells (CD3+) (human, UniProt P07766 23-207; P04234 22-171; P09693 23-182); experiment: flow cytometry on Jurkat-T Lucia cells (CD3+); scFv-Fc followed by Alexa Fluor 647-conjugated donkey anti-human F(ab')2 pAbs
[8] = biological target: T2, human ROR1 on cells (MDA-MB-231, ROR2-, …); experiment: flow cytometry on MDA-MB-231 cells (ROR2-, ROR1+); biAb followed by Alexa Fluor 647-conjugated donkey anti-human F(ab')2 pAbs
[9] = biological target: human ROR2 on cells (endogenous on T47D, 786-O and U266 cell lines); expressed on HEK 293 cells of the … (human, UniProt Q01974 34-943); experiment: cell-based or functional assay

fold improvement of affinity from 401 [1]: ≥ 5 fold
fold increase in binding affinity [2]: 10 fold
Kd [3]: 0.7 nM
binding result [4]: no binding
Kd [5]: 0.72 nM
koff [5]: 3.3e-05 s⁻¹
kon [5]: 45000 M⁻¹ s⁻¹
B1: XBR2-401-X3.12 Fab (affinity matured chimeric rabbit/human Fab) (Fab, V domains shown)
VH: QSVKESEGGLFKPTDTLTLTCTVSGFSLSSYGVTWVRQAPGSGLEWIGYINTAGNTYYASWAKSRSTITRNTNENTVTLKMTSLTAADTATYFCARDDRWSLNIWGPGTLVTVSS
VL: DPMLTQTPSSTSTAVGDTVTIKCQASQSISSDLSWYQQKPGQRPKLLIYQASTLASGVPSRFKGSGYGTEYTLTISGVQREDAAIYYCLGGYADASYRTAFGGGTKLEIK
notes: Chimeric rabbit/human Fab

binding result [6]: no binding (tested: 20 µg/mL)
binding result [7]: no binding
B2: hX3.12.6 scFv-Fc (IgG1-like format, two identical scFv fused to human IgG1 Fc) (Fc fusion)
chain: DPMLTQSPSSLSASVGDRVTITCQASQSISSDLSWYQQKPGKAPKLLIYQASTLASGVPSRFKGSGYGTEYTLTISSLQPEDFATYYCLGGYADASYRTAFGGGTKLEIKGGGGSGGGGSGGGGSEVQLVESGGGLVQPGGSLRLSCAASGFTFSSYGVTWVRQAPGKGLEWVSYINTAGNTYYASWAKSRFTISRDNAKNSLYLQMNSLRAEDTAVYYCARDDRWSLNIWGQGTLVTVSS
notes: The text says only: (Gly4Ser)3 linker between VL and VH, fused to the human IgG1 Fc fragment; also called mAb hX3.12.6 in scFv-Fc format; Humanized scFv-Fc xh3.12.6; not shown: human IgG1 Fc fragment

binding result [8]: no binding
specific lysis of 786-O cells by expanded primary T cells (E:T 10:1, 16 h), EC50 [9]: 0.19 µg/mL and 1.9 nM
B3: 401×v9 ROR2×CD3 bispecific antibody (heterodimeric aglycosylated scFv-Fc) (bispecific antibody)
chain 1: DPMLTQTPSSTSTAVGDTVTIKCQASQSISSDLSWYQQKPGQRPKLLIYQASTLASGVPSRFKGSGYGTEYTLTISGVQREDAAIYYCLGGYADASYRTAFGGGTKLEIKGGGGSGGGGSGGGGSQSVKESEGGLFKPTDTLTLTCTVSGFSLSSYGVTWVRQAPGSGLEWIGYINTAGNTYYASWAKSRSTITRNTNENTVTLKMTSLTAADTATYFCARDWTSLNIWGPGTLVTVSSEPKSSDKTHTCPPCPAPELLGGPSVFLFPPKPKDTLMISRTPEVTCVVVDVSHEDPEVKFNWYVDGVEVHNAKTKPREEQYASTYRVVSVLTVLHQDWLNGKEYKCKVSNKALPAPIEKTISKAKGQPREPQVYTLPPCRDELTKNQVSLWCLVKGFYPSDIAVEWESNGQPENNYKTTPPVLDSDGSFFLYSKLTVDKSRWQQGNVFSCSVMHEALHNHYTQKSLSLSPGA
chain 2: EVQLVESGGGLVQPGGSLRLSCAASGYSFTGYTMNWVRQAPGKGLEWVALINPYKGVSTYNQKFKDRFTISVDKSKNTAYLQMNSLRAEDTAVYYCARSGYYGDSDWYFDVWGQGTLVTVSSGGGGSGGGGSGGGGSDIQMTQSPSSLSASVGDRVTITCRASQDIRNYLNWYQQKPGKAPKLLIYYTSRLESGVPSRFSGSGSGTDYTLTISSLQPEDFATYYCQQGNTLPWTFGQGTKVEIKEPKSSDKTHTCPPCPAPELLGGPSVFLFPPKPKDTLMISRTPEVTCVVVDVSHEDPEVKFNWYVDGVEVHNAKTKPREEQYASTYRVVSVLTVLHQDWLNGKEYKCKVSNKALPAPIEKTISKAKGQPREPQVCTLPPSRDELTKNQVSLSCAVKGFYPSDIAVEWESNGQPENNYKTTPPVLDSDGSFFLVSKLTVDKSRWQQGNVFSCSVMHEALHNHYTQKSLSLSPGA

binding result [8]: no binding
specific lysis of 786-O cells by expanded primary T cells (E:T 10:1, 16 h), EC50 [9]: 0.21 µg/mL and 2.1 nM
B4: hX3.12.6×v9 ROR2×CD3 bispecific antibody (heterodimeric aglycosylated scFv-Fc) (bispecific antibody)
chain 1: DPMLTQSPSSLSASVGDRVTITCQASQSISSDLSWYQQKPGKAPKLLIYQASTLASGVPSRFKGSGYGTEYTLTISSLQPEDFATYYCLGGYADASYRTAFGGGTKLEIKGGGGSGGGGSGGGGSEVQLVESGGGLVQPGGSLRLSCAASGFTFSSYGVTWVRQAPGKGLEWVSYINTAGNTYYASWAKSRFTISRDNAKNSLYLQMNSLRAEDTAVYYCARDDRWSLNIWGQGTLVTVSSEPKSSDKTHTCPPCPAPELLGGPSVFLFPPKPKDTLMISRTPEVTCVVVDVSHEDPEVKFNWYVDGVEVHNAKTKPREEQYASTYRVVSVLTVLHQDWLNGKEYKCKVSNKALPAPIEKTISKAKGQPREPQVYTLPPCRDELTKNQVSLWCLVKGFYPSDIAVEWESNGQPENNYKTTPPVLDSDGSFFLYSKLTVDKSRWQQGNVFSCSVMHEALHNHYTQKSLSLSPGA
chain 2: B3 chain 2
notes: ROR2 scFv on the knob Fc, v9 anti-CD3 scFv on the hole Fc, both N297A; also called hX3.12.6×V9 bi-mAb

binding result [8]: no binding
specific lysis of 786-O cells by expanded primary T cells (E:T 10:1, 16 h), EC50 [9]: 0.15 µg/mL and 1.5 nM
B5: hX3.12.5×v9 ROR2×CD3 bispecific antibody (heterodimeric aglycosylated scFv-Fc) (bispecific antibody)
chain 1: B4 chain 1 with V137I, F154V, A199S, S202T
chain 2: B3 chain 2
notes: ROR2 scFv on the knob Fc, v9 anti-CD3 scFv on the hole Fc, both N297A; also called hX3.12.5×V9 bi-mAb; hX3.12.5×CD3 bi-mAb

Reference: patent US20230143003A1 (JULIUS MAXIMILIANS UNIVERSIT T W RZBURG, published 2023)
